Results on 41 sequences are retold here after the nanobody polyreactivity screen of Harvey et al. (2022).

The series can be described thus: yeast display, Sf9 membrane polyspecificity reagent, FACS + sequencing; frameworks hold sequencing errors. A digest of the protocol: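 Nanobodies came from a synthetic yeast display library in Saccharomyces cerevisiae BJ5465, induced with galactose for 36–48 hours and stained for 1 hour at 4 °C with 10% biotinylated, detergent-solubilized Sf9 membrane reagent. Cells were enriched on streptavidin microbeads and then FACS-sorted, with low and high (top ~1%) gates set on anti-HA fluorescence for expression and streptavidin fluorescence for reagent binding. Each polyreactivity label reflects the gate a clone came from. Genes were amplified by colony PCR, sequenced by MiSeq 2 × 250 and filtered by CDR length.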
Regarding “QVQLVESGGGLVQAGGSLRLSCAATGSIFAVYAMGWYRQAPGKERELVARITRGGGSTYYADSVKGRFTISRDNAKNTVYLQMNSLKPEDTAVYYCAAARWSQYRTWMNYWGQGTQVTVSS”, the “polyreactivity (PSR sort gate)” value was “high polyreactivity”.
Next, “QVQLVESGGGLVQAGGSLRLSCAATGSIFEGYAMGWYRQAPGKERELVARITSDDDSTYYADSVKGRFTISRDNAKNSVYLQMNSLKPEDTAVYYCNADYYWTSLAMDSWGQGTQVTVSS”: “low polyreactivity”.
Under “QVQLVESGGGLVQAGGSLRLSCAATGSIFNIYTMGRYRQAPGKERELVAVITSSGGKYYADSLKGRFTISRDNAMNTVYLQMNSLKPEDTAVYFCAARRRPYSPHLGYWGQGTQVTVSS” stands “high polyreactivity”; under “QVQLVESGGGLVQAGGSLRLSCAATGSIFPANVMGWYRQAPGKERELVASINSGDDTNYADSVKGRFTISRDNAKNTVYLQMNSLKPEDTAVYYCATGDWYPYGDYIYDYWGQGTQVTVSS”, “low polyreactivity”; under “QVQLVESGGGLVQAGGSLRLSCAATGSIFVPNTMGWYRQAPGKERELVADINSDTGRTYYADSVKGRFTISRDNAKNTVYLQMNSLKPEDTAVYYCAAEWYSFWSSVEYDYWGQGTQVTVSS”, “low polyreactivity”.
Under “QVQLVESGGGLVQAGGSLRLSCAATGSNFTGNAMVWYRQAPGKERELVAAISRSGGSTYYADSVKGRYTISRDNAKNTVYLQMISLKPEDTAVYYCAAYRTHGPPRAIRFDYWGQGTQVTVSS” stands “high polyreactivity”; under “QVQLVESGGGLVQAGGSLRLSCAATGSTFGPYVMGWYRQAPGKERELVAVISGGSTDYADSVKGRFTISRDNAKNTVYLQMNTLKPEDTAVYYCNAVLYVQDRLTRVDYDYWGQGTQVTVSS”, “high polyreactivity”; under “QVQLVESGGGLVQAGGSLRLSCAATGSTFVYYALGWYRPAPGKERELVAAITASGGGTYYADSVKGRFTISRDNAKNTVYLQMNSLKPEDTAVYYCNRGYDYWGQGTQVTGSS”, “low polyreactivity”.
In the case of “QVQLVESGGGLVQAGGSLRLSCAATGSTFYRNAMGWYRQAPGKEREFVAAISFRGGGTYADSVKGRFTISRDNAKNTVFLQMNSLKPEDTAVYYCADDHLSYRRRYEYWGQGTQVTVSS”, the “polyreactivity (PSR sort gate)” value is listed as “low polyreactivity”.
Under “QVQLVESGGGLVQAGGSLRLSCAAWSIFYLNAMGWYRQAPGKERELVAAISSAGSTYYADSVKGRFTISRDNAKNTVYLQMNSLKPEDTAVYYCAAYWYDSPGVTEIWYDYWGQGTQVTVSS” stands “low polyreactivity”.
Under “QVQLVESGGGLVQAGGSLRLSCAAYAMGWYRQAPGKERELVAAISSSGGSTYYADSVKGRFTISRDNAKNTVYLQMNSLKPEDTAVYYCARDPDTYFFPPTGYYTSGFDSWGQGTQVTVSS” stands “low polyreactivity”; under “QVQLVESGGGLVQAGGSLRLSCAAYGFIFWYYDMGWYRQAPGKETELVAGITSGGSTNYEDSVKGRFTISRDNATNTVYLQMNRLKPEDTAVYYCAATYYGYHIRDDYWGQGTLVTVSS”, “low polyreactivity”.
Next, “QVQLVESGGGLVQAGGSLRLSCAAYGFTFAAYSMGWYRQAPGKEREFVAAITSRDGTTYYADSVKGRFTISGYNAKNTVYLQMNSLKPEDTAVFYCAKDHFNWGVSEVDSWRQGTQVTVSS”: “low polyreactivity”; “QVQLVESGGGLVQAGGSLRLSCAAYGFTIYYYTMGWYRQAPGKERELFAAISHSGSSTYYADSVKGRFTISRDNAKKTVNLQMNSLKPEDTAVYYCAASRSKNSALGGRVSIGDYWGQGTQVTVSS”: “high polyreactivity”; “QVQLVESGGGLVQAGGSLRLSCAAYGGTFNGNTMGWYRQAPGKERELVAVIDWSGGSTYYADSVKGRFTISRDNAKNTVYLQMNSLKPEDTAVYYCNADSDAQFREPKGLYYWGQGTQVTVSS”: “low polyreactivity”.
Consider “QVQLVESGGGLVQAGGSLRLSCAAYGIIFAYNAMGWYRQAPGKERELVATITDSGGSTSYADSEKGRFTISRDNAKNTVYLQMNSLKPEDTAVYYCAVLPVYWYWRNYVYLSGYDYWGQGTQVTVSS”, for which the “polyreactivity (PSR sort gate)” value is “low polyreactivity”.
On to “QVQLVESGGGLVQAGGSLRLSCAAYGIIFRLKARGSNRQSPGKERELVAAITRRGGTTYYADSVKGRFTISRDNAKYTVYLQMNSLKPEDTAVFFCNTYYYWQYDWGQGTQVSVSS”, for which the “polyreactivity (PSR sort gate)” value is “high polyreactivity”.
Under “QVQLVESGGGLVQAGGSLRLSCAAYGITFPSYTMGWYRQAPGKERELVATIRNGGSTYYADSVKGRFTISRDNAKNTVYLQMNSLKPEDTAVYYCAAKDTGYGYGVPRLDYWGQGTQVTVSS” stands “low polyreactivity”; under “QVQLVESGGGLVQAGGSLRLSCAAYGITFPVNAMGWYRQAPGKERELVAGIYFSGDSTYYADSVKGRFTISRDNAKNTVYLQMKSLKPEDTAVYYCAAEVWAFVYYFEYSTMYYWGHGTQVTVSS”, “low polyreactivity”.
Under “QVQLVESGGGLVQAGGSLRLSCAAYGITFVPNAMGWYRQAPGKERELVAAITSGDSTNYADSVKGRFTISRDNAKNTVYLQMNSLKPDDTAVYYCAADSWAQRPNQGRVSLHYYWGQCTQVTVSS” stands “low polyreactivity”; under “QVQLVESGGGLVQAGGSLRLSCAAYGITFYWYAMGRYRQAPGKEWELVAGISQSGSRTYYADSVKGRFTISRDNAKNTVYLQMNSLKPEDTAVYYCAARVRWSPTRTFEYWGQGTQVTVSS”, “high polyreactivity”; under “QVQLVESGGGLVQAGGSLRLSCAAYGLIFTHNTMGWYRQAPGKERELVAAITTSGGTTYYADSVKGRFTISRDNAKNTVYLQMNSLKPEDTAVYYCNALYLSTRSGDYWGQGTQVTVSS”, “high polyreactivity”.
Under “QVQLVESGGGLVQAGGSLRLSCAAYGLTFCLNAMGWYRQAPGKERYLVAAIRYSGGGTYADSVKGRFTISRDNAMNTVYLQMISLKPEDTAVYYCAALYYLGYPQFDYWGQGTQVTVSS” stands “low polyreactivity”; under “QVQLVESGGGLVQAGGSLRLSCAAYGLTFDSYAMGWYRQAPGKERELVAAISYGGGSTNFADSVKGRFTISRDNAKNTVYLQLNSLKPVDTAVYYCGAEPGYYDEYGYWGQGTQVTVSS”, “low polyreactivity”; under “QVQLVESGGGLVQAGGSLRLSCAAYGRIFDNNAMGWYRQAPGKERELVAAIDWRGGSTDYADSVKGRFTISRDNAKNTVYLQMNSLKPEDTAVYYCVAGHVPYWHGNSYDYWGQGTQVTVSS”, “low polyreactivity”.
For the sequence “QVQLVESGGGLVQAGGSLRLSCAAYGRIFYYNAMGWFRQAPGKERELVASIDNGGSTNYADSVKGRFTISRDNAKNTVYLQMNSLKPEDTAVYYCNVDLYYEVSHVFLYEYDYWGQGTQVTVSS”, the “polyreactivity (PSR sort gate)” value is given as “low polyreactivity”.
Under “QVQLVESGGGLVQAGGSLRLSCAAYGRILYYYAMGWYRQAPGKETELVAAITETSGSTYYADSVKGRFTISRDNAKTTVYLQMNSLHPEDTAVYYCAASSTRGHYTAYDYWGQGTHVTVSS” stands “low polyreactivity”.
Turning to “QVQLVESGGGLVQAGGSLRLSCAAYGRTFLFYAMGWYIQAPGKERELVAAITRSDGSTYYADSVKGRFTISRDNAKNTVYLQMNSLKPEDTAVYYCAAEYVSILRDYDYWGQGTQVTVSS”, the “polyreactivity (PSR sort gate)” value is reported as “low polyreactivity”.
Regarding “QVQLVESGGGLVQAGGSLRLSCAAYGSIFEGNPMGWYRQAPGKERELVASISGDGSTNYADSVKGRFTISRDNAKNTVYLQMNSLKPEDTAVYYCNADTISEPGFHMDYWGQGTQVTVSS”, the “polyreactivity (PSR sort gate)” value was “low polyreactivity”.
Next, “QVQLVESGGGLVQAGGSLRLSCAAYGSIFIYAMGGYRQAPGKVRELVAAISSSGGSTYYADSVKGRFTISRDNAKNTVYLQMNSLKPEDTAVYYCAARYTYSGDKGYYWGQGTQVTVSS”: “high polyreactivity”.
Under “QVQLVESGGGLVQAGGSLRLSCAAYGSIFKWYTMGWYRQAPGKERELVADINWNGGRTYYADSVKGRFTISRDYAKNTVYLQMNSLKPEDTAVFDCAASRGDYWGQGTQVTVSS” stands “high polyreactivity”; under “QVQLVESGGGLVQAGGSLRLSCAAYGSNFYLYAMGWYRQAPGKERELVAAITRGGTTNYADSVKGRFTISRDNAKNTVYLQMNSLKPEDTAVYYCAKEVTTLLSLYEIVDRDYWGQGTQVTVSS”, “low polyreactivity”.
Next, “QVQLVESGGGLVQAGGSLRLSCAAYGSTFCVYAMGWYRQAQGKERELVAAINFSGRTYYADSVKVRFSISRDNAKNTVYVQMNSLKPEDTAVYYCAARIIFEDVGTKYYYWGQGTHVTVSS”: “high polyreactivity”.
Consider “QVQLVESGGGLVQAGGSLRLSCAAYGSTFQPYAMGWYRPATGKEREFVATISGSAGSTYYADSVKGRFKISRDNAKNTVYLQMNSLKPEDTAVDYCNADSGWFGYDYWGQGTQVTVSS”, for which the “polyreactivity (PSR sort gate)” value is “low polyreactivity”.
Next, “QVQLVESGGGLVQAGGSLRLSCAAYGSTFRYYAMGWYRQAPGKERELVAAITSSGGSTYYADSVKGRFTISRDNAKNTVFLQMNSLKPEDTAVYYCAVAVKNWVKLNYWGQGSQVTVSS”: “high polyreactivity”; “QVQLVESGGGLVQAGGSLRLSCAAYGSTFRYYTMGWYRQAPGKERELVAAISGSGGITYYADSLKGRFTISRDNAKNTVYLQMNSLKPEDTAVYYCAAESRYYPYWGQSVQYDYWGQGTQVTVSS”: “high polyreactivity”; “QVQLVESGGGLVQAGGSLRLSCAAYGSTFSTYAMGWYRQAPGKEREMVAAITLSSGRTTYADSVKGRFTISRDNAKNTVYLQMNSLKPEDTAVYYCNAYYGAAFTYWDYYWGQGTQVTVSS”: “low polyreactivity”.
On to “QVQLVESGGGLVQAGGSLRLSCAAYGSTFVLYGMGWYRQAPGKEWELVAAISTSGGRTYYADSEKGRFTISRDNAKNSVSLQMNSLKPEDTAVYYCAALTYVAHYDEYWGQGTQVTVSS”, for which the “polyreactivity (PSR sort gate)” value is recorded as “low polyreactivity”.
Under “QVQLVESGGGLVQAGGSLRLSCAAYGSTFWPYAKGWSRQAPGKERELVAAISSSGGSTYYADSVKGRFTISRDNAKHTVYLQMNSLIPEDTAVYYCNIDYHRPYGGGSKGDFWGQGTQVTVSS” stands “low polyreactivity”; under “QVQLVESGGGLVQAGGSLRLSCAAYGSTYGTNALGWYRQAPGKERELVAAITSRVGRTYYADSVKGRFTISRDNAKNTVYLQMNSLKPEDTAVYYCAASRLVRYQSRYGSWGQGTQVTVSS”, “high polyreactivity”.
As to “QVQLVESGGGLVQAGGSLRLSCAAYGTIFFSYSMGWYRQAPGKERELVADIRSSDDDTYYADSVKGRFTISRDNAKNTGYLQMNSMKPEDTAVYYCNADFGYWWDGRRYDYWGQGTQVTVSS”, the “polyreactivity (PSR sort gate)” value is on record as “low polyreactivity”.
